From patent publication US20250289871A1 come the findings set out here.

What all share (test): cell-based or functional assay
Assay [1] addresses SARS-CoV-2 Alpha spike protein (authentic virus) (SARS-CoV-2) (UniProt P0DTC2).
For assay [2], the target named is SARS-CoV-2 BA.1.1 spike protein (authentic virus) (SARS-CoV-2) (UniProt P0DTC2).
Assay [3] concerns the target SARS-CoV-2 BA.5 spike protein (authentic virus) (SARS-CoV-2) (UniProt P0DTC2).
Assay [4] concerns the target SARS-CoV-2 BA.2 spike protein (authentic virus) (SARS-CoV-2) (UniProt P0DTC2).
The target of assay [5] is SARS-CoV-2 BA.1 spike protein (authentic virus) (SARS-CoV-2) (UniProt P0DTC2).
The target in assay [6] is SARS-CoV-2 BA.2.12.1 spike protein (authentic virus) (SARS-CoV-2) (UniProt P0DTC2).

For cilgavimab (AZD1061) (antibody), the Authentic Virus Neutralization IC50 was 0.006 µg/mL in assay [1]; greater than 10 µg/mL in assay [2]; 0.131 µg/mL in assay [3]; 0.021 µg/mL in assay [4]; 3.78 µg/mL in assay [5]; 0.029 µg/mL in assay [6].
